The text below walks through data of patent publication US20260209387A1, “SINGLE-DOMAIN ANTIBODY FOR INHIBITION OF NEUTROPHIL ELASTASE ACTIVITY” (UNIVERSITE DE LIEGE, priority 2023, published 2026).

Peptide text beside a SMILES is read from it. * marks the point of attachment. MeOSuc = COC(=O)CCC(=O)*; CH2Cl = ClC*

One data set concerns the target T1, hNE (Homo sapiens, UniProt P08246).
T1 construct: purchased Elastin Products Company (EPC)
T1 sequence (P08246 30-247): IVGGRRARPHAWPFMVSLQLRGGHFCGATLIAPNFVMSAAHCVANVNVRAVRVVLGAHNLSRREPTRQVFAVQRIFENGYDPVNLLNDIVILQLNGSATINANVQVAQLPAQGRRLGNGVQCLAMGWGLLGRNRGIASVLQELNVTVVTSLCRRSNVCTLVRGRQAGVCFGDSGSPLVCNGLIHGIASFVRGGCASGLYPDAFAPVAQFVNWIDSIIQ
In words: hNE inhibition, hydrolysis of elastin (Elastin-CongoRed). Format: biochemical. Here is the method: 1.6.2. Inhibition of the hydrolysis of elastin, a natural substrate of hNE. […] The samples were incubated for 16 hours at 37° C. with orbital shaking (900 rpm). The samples were then centrifuged at 90′000 g for 30 minutes at 4° C. to separate the insoluble Elastin from the digested and soluble molecule fragments. The soluble fraction was transferred into a 384-wells clear plate and the absorbance of Congo-red was measured at 495 nm in a SpectraMax M2e Microplates Reader (Molecular Devices, California, USA). The absorbance of the samples at different inhibitor: hNE molar ratios was compared to that measured in the absence of inhibitor, to determine the residual hNE activity. A sample of Elastin-Congo red without elastase was used as blank.

Data set [1] concerns hNE-induced alveolar-capillary damage. Description: hNE-induced acute lung injury mouse model. The following applies: nasal instillation 15 min prior to hNE 25 μg; molar ratio Nb/HNE 4/1. In kind it is in vivo, mice. Here is the method: The in vivo efficacy of NbE201 was determined using a mouse model of acute lung injury induced by nasal instillation of HNE (L agente et al., 2009, American Thoracic Society International Conference Abstracts. (American Thoracic Society), A5668. doi: 10.1164/ajrccm-conference.2009.179.1_MeetingAbstracts.A5668). […]
It was determined with the hemoglobin assay kit (Sigma) and performed according to the manufacturer's instructions. […] A measurement of the optical density at 400 nm allowed the quantification of this stable complex. […]
Histological sections of the lung were digitized using a panoramic scan 2 (3[…]). […] This semi-automated analysis made it possible to quantify the damaged alveolar surface. […] The percentage of injured surface was determined by the ratio: % injured area=(injured area/alveolar area)×100

Data set [2] is described as follows: Aggregates detection by Nanoparticle Tracking Analysis. In kind it is physicochemical. The following applies: 0.25 mg/ml, after nebulization. How it is done:
2.3.5 Aggregates Detection. Protein aggregates were visualized by Nanoparticle Tracking Analysis (NTA) (ZetaView, 220 Twin Laser, Particle Metrix, Ammersee, Germany), a technique used for measuring single particle size and concentration. NbE201, NbE201-PEG10 and NbE201-PEG40 solutions (0.25 mg/ml) were analysed before and after nebulization. 11 positions were analysed for which following parameters were used: • Laser wavelength: 488 nm • Scatter, no fluorescence • Sensitivity: 80 • Shutter: 100

Data set [3] can be described thus: Physical stress (nebulization, agitation, freeze/thaw): concentration by A280 nm before/after centrifugation. In kind it is physicochemical. The following applies: for Initial concentration percentage after centrifugation: 10 000 g 10 min. How it is done:
A 0.25 mg/ml solution of NbE201, NbE201-PEG10 or NbE201-PEG40 was prepared and divided in order to apply the following conditions: control, 1 or 4 h of agitation with a magnetic bar, nebulization, 5 or 10 freeze/thaw cycles.
2.3.1 Stability towards agitation. 100 μl of a 0.25 mg/ml ISVDs solution were agitated in a 1 ml glass vial with a 2×5 mm magnetic bar (VWR, Radnor, USA) at 200 rpm during 1 or 4 hours.
2.3.2 Stability towards Nebulization. 300 μl of a 0.25 mg/ml ISVDs solution were nebulized with a MeSH nebulizer (InnoSpire Go, Phillips, Amsterdam, The Netherlands).
2.3.3 Stability towards freezing/thawing. 100 μl of a 0.25 mg/ml ISVDs solution underwent 5 or 10 freeze/thaw (F/T) cycles. Freezing was performed in a −20° C. freezer and thawing was performed at RT.
2.3.4 Concentration measurements. Concentrations and UV spectra were measured by spectrophotometry (NanoDrop 2000/2000c spectrophotometer, ThermoFisher). Concentrations were determined based on the absorbance at 280 nm. NbE201 and NbE201-Cter mass extinction coefficients applied to the measurements were 1.888 and 1.716 (mg/mL)^−1 cm^−1 respectively. Regarding the ISVDs exposed to physical stresses, the concentration was read before and after centrifugation at 10 000 g at 4° C. for 10 min.

The target of data set [4] is T2, proteolytic (elastase) activity of cystic fibrosis patient sputa (Homo sapiens, UniProt P08246).
T2 construct: Sputa from patients with cystic fibrosis, COPD or ciliary diskenisia above 18 years old were collected; from tissue; host or cells: expectorated sputum of patients with cystic fibrosis, COPD or ciliary dyskinesia
T2 sequence (P08246 30-267): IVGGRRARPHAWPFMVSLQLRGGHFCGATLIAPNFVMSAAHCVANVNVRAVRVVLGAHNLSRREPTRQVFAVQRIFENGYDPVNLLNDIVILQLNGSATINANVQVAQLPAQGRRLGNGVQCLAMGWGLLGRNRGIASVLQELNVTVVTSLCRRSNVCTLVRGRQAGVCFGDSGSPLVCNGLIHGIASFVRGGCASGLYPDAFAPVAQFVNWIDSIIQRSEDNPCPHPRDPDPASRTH
In words: Sputum proteolytic activity inhibition, cystic fibrosis sputa. In kind it is biochemical. To be noted: exposure time 0. How it is done: 2.2.2 Evaluation of the proteolytic activity inhibition in CF, COPD and ciliary diskenisia sputa. […] Sputa collection procedures were evaluated by the local ethic committee (comité d'Ethique Hospitalo-Facultaire des Cliniques universitaires Saint-Luc) and approved under the Belgian registration number B4032021000071.
Sputum proteolytic activity was assessed by following with a spectrophotometer the absorbance at 410 nm of suc-Ala-Ala-Pro-Val-pNA degradation, the chromogenic hNE substrate. Sputa were classified as mucoid, muco-purulent or purulent (Serisier et al., 2009, Respir Res, 10 (1): 63. doi: 10.1186/1465-9921-10-6). According to the experiment, 10 to 20 mg of sputum were weighted in a 96-well plate. ISVDs were then added to the sputum samples and pre-incubated at 37° C. during different periods of time. The hNE substrate was diluted to a concentration of 1 mM in a tris buffer (0.1M tris, 0.5M NaCl, 0.01% Sodium azide (NaN3), pH 7.5) and 50 μl of this solution were added to the wells. The substrate degradation was followed during 50 min. […] Slopes were then calculated from the regression line drawn from the absorbance measurements and were expressed as a percentage of the sputum proteolytic activity without ISVDs.

Data set [5] addresses T3, human neutrophil elastase (human, UniProt P08246 30-247, glycans (NAG-NAG-FUC) at N109 and N204, chymotrypsinogen numbering, seen in the crystal).
T3 construct: Purified hNE bought from Elastin Products Company; In the crystal, density is defined for I1 to Q218; also called hNE; HNE
T3 sequence: T1 sequence (P08246 30-247)
In words: capture of hNE on streptavidin magnetic beads via biotinylated NbE34 (phage panning).
Experimental: The recovery of the beads after each step was carried out on a magnetic stand for 1.5 ml Eppendorf tubes for two minutes. All the incubation steps took place at room temperature and in a shaker with vertical rotation. Washing steps were carried out with 500 μl phosphate-buffered saline solution with a detergent solution of 0.01% (PBST, PBS with 0.01%, % v/v, Tween 20). First, 0.04 mg of beads were functionalized with 4 μg of chemically biotinylated NbE34 in 1 ml of PBS. After 5 washings, the beads were incubated with 5 μg of hNE in 500 μL of PBS. A negative control tube with magnetic beads functionalized with NbE34 but without hNE was also prepared. Then, the beads in each tube were incubated in 500 μl of blocking buffer. The blocking buffer was casein 0.1% (% w/v), bovine serum albumin 0.1% (% w/v) or protein free-blocking buffer (ThermoFisher Scientific, United States) in rounds 1, 2 and 3, respectively. In the next step, 2×10¹¹ phages from the library were incubated in the positive and the negative tubes and incubated for 1 hour. The beads were washed at least 10 times with PBST (PBS containing 0.05%, % v/v, Tween 20), previous to the elution of phages with 200 μl of triethanolamine (TEA) pH 11 for 10 minutes and neutralization with 200 μl of trisaminomethane hydrochloric acid (Tris-HCl) 1M pH8. […]

Consider `COC(=O)CCC(=O)N[C@@H](C)C(=O)N[C@@H](C)C(=O)N1CCC[C@H]1C(=O)N[C@H](C(=O)CCl)C(C)C` [EI3, methyl 4-[[(2S)-1-[[(2S)-1-[(2S)-2-[[(3S)-1-chloro-4-methyl-2-oxopentan-3-yl]carbamoyl]pyrrolidin-1-yl]-1-oxopropan-2-yl]amino]-1-oxopropan-2-yl]amino]-4-oxobutanoate, reference compound] (MeOSuc-AAPV-CH2Cl), for which, at hNE ([inhibitor]:[hNE] ratio 15), the “inhibition of hNE activity, elastin hydrolysis” value was 95%.

On to `CC(C)(C)C(=O)Oc1ccc(S(=O)(=O)Nc2ccccc2C(=O)NCC(=O)O)cc1` [Sivelestat, reference compound], for which, at hNE ([inhibitor]:[hNE] = 50), the “inhibition of hNE activity, elastin hydrolysis” value is recorded as 40%.

Regarding “AAT: endogenous glycoprotein, covalent natural inhibitor of neutrophil elastase”, the “protection against hNE-induced alveolar-capillary damage” value in data set [1] was “protects the lungs from developing alveolar-capillary damage”.

B1: NbE201-PEG10: NbE201-Cter (linker SPSTPPTPSPSTPP + C-terminal cysteine) conjugated to linear 10 kDa PEG-maleimide (conjugate)
VHH: QVQLQESGGGLVQAGGSLRLSCVVPGRTISLYRMGWFRQAPGKEREFVAGINWSGDMTDYVDSVKGRFTISRDNAKNTVYLEMNSLKPEDTAIYYCTADPKLLPLADSSYGYWGQGTQVTVSSSPSTPPTPSPSTPPC
Turning to B1, the “average counted particles per frame (NTA)” value in data set [2] was “far below that threshold”. In addition, the “Initial concentration percentage before centrifugation” value is 98 ± 1% in data set [3] (Agitation (1 h)); 100 ± 1% in data set [3] (Agitation (4 h)); 100 ± 0% in data set [3] (Control); 99 ± 1% in data set [3] (F/T 5x); 98 ± 2% in data set [3] (F/T 10x); 85 ± 2% (***) in data set [3] (Nebulization). For the same molecule, the “Initial concentration percentage after centrifugation” value in data set [3] (Agitation (1 h)) was 97 ± 2%; in data set [3] (Agitation (4 h)) it was 93 ± 2%; in data set [3] (Control), 94 ± 2%; in data set [3] (F/T 5x) it was 99 ± 1%; in data set [3] (F/T 10x) it was 98 ± 1%; in data set [3] (Nebulization) it was 85 ± 3%. The “sputum proteolytic activity inhibition at time 0, compared with NbE201” value in data set [4] is “No significant difference”.

B2: NbE34 (VHH)
VHH: QVQLQESGGGLVQPGGSLRLSCAASGFTLDYHAIGWFRQAPGKEREGVSCISSSGGRADYADSVKGRFTISRDNAKNTVYLQMNSLKPEDTAVYYCATRCAVVGGTYYYGMDYWGKGTQVTVSS
modifications: chemically biotinylated (sites not given)
notes: It was used to capture hNE on streptavidin beads for the panning; also called biotinylated capture ISVD NbE34
B2: the binding result in data set [5] is “binds”.
